# Test results taken from patent publication JP2008194054A (dated 2008).
# T1: 精製連鎖球菌抗原(SA)I/II (Streptococcus mutans, UniProt P23504 39-1532)
# T1 construct: Purified antigen; also called 固定化精製連鎖球菌抗原
# T1 sequence (looked up): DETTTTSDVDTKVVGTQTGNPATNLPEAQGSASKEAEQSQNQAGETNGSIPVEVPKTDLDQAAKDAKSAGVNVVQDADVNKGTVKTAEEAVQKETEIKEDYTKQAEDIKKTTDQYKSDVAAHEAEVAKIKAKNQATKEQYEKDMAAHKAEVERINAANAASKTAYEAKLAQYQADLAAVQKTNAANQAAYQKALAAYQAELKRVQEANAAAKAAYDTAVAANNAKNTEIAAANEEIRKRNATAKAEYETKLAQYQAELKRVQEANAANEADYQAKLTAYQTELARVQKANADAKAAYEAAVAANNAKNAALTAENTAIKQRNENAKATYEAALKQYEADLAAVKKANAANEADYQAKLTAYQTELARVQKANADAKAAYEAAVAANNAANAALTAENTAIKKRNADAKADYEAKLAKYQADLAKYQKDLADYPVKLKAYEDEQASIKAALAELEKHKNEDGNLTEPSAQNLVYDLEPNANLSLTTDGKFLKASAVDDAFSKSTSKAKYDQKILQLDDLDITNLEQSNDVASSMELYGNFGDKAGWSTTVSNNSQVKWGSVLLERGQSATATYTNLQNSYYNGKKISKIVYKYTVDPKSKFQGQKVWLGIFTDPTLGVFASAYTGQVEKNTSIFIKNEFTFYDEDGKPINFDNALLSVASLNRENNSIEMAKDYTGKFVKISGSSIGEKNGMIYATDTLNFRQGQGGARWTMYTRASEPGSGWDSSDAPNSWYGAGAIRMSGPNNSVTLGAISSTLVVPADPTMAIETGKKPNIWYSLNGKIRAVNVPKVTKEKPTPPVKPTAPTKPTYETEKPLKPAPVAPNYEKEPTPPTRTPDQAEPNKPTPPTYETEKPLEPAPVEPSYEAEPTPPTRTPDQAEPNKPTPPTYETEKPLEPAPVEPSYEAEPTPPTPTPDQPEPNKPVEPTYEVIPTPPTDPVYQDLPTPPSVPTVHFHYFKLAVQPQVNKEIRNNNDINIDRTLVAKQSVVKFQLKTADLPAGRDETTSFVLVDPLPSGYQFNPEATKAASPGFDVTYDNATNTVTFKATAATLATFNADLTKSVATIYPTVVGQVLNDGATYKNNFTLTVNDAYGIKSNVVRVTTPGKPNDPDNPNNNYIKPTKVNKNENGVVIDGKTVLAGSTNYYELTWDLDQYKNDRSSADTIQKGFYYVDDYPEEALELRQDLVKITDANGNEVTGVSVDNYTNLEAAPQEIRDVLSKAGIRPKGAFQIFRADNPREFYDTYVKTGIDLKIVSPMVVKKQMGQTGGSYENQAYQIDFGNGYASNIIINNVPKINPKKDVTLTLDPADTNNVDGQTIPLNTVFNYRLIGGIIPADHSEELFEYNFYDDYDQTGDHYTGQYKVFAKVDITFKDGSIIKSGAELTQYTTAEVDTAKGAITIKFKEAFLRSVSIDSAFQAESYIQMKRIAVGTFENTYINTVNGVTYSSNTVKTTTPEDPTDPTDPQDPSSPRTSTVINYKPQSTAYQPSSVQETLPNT
# Experiments:
# 精製連鎖球菌抗原(SA)I/II [1] = molecular target: T1, 精製連鎖球菌抗原(SA)I/II; assay: competition ELISA on purified SA I/II; competitor 125I-labelled mouse Guy's13
# 精製連鎖球菌抗原(SA)I/II [2] = molecular target: T1, 精製連鎖球菌抗原(SA)I/II; assay: ELISA on SA I/II, plant extracts
molecule,measurement,setting,value
植物G1/A (Guy's13可変領域−(IgG1 CH1)−(IgA CH2)−(IgA CH3) ハイブリッド重鎖とカッパ鎖) (from UniProt P01878 101-344) (antibody),標識マウスGuy's13の阻害%,精製連鎖球菌抗原(SA)I/II [1],< 85%
植物G13 (本来のガンマ重鎖のGuy's13IgG、タバコで発現) (antibody),標識マウスGuy's13の阻害%,精製連鎖球菌抗原(SA)I/II [1],< 85%
植物G2/A (var−γ1−γ2−α2−α3ドメインを含むIgG/IgAハイブリッド重鎖のGuy's13) (from UniProt P01878 101-344) (antibody),標識マウスGuy's13の阻害%,精製連鎖球菌抗原(SA)I/II [1],< 85%
"マウスJ鎖 (J鎖のみを発現する植物) (other, mouse, UniProt P01592 22-159, looked up, Tested as extract of tobacco plants that express J chain only, or by co-expression) GDDEATILADNKCMCTRVTSRIIPSTEDPNEDIVERNIRIVVPLNNRENISDPTSPLRRNFVYHLSDVCKKCDPVEVELEDQVVTATQSNICNEDDGVPETCYMYDRNKCYTTMVPLRYHGETKMVQAALTPDSCYPD",binding result,精製連鎖球菌抗原(SA)I/II [2],no binding
